Data: patent US20030200555

Target: T1, coumarin-CO-REVNFEVEFR
T1 chain: REVNFEVEFR

B1: BACE 1, soluble (transmembrane domain and cytoplasmic extension excluded) human protein produced in a baculovirus expression system (protein)
chain: TQHGIRLPLRSGLGGAPLGLRLPRETDEEPEEPGRRGSFVEMVDNLRGKSGQGYYVEMTVGSPPQTLNILVDTGSSNFAVGAAPHPFLHRYYQRQLSSTYRDLRKGVYVPYTQGKWEGELGTDLVSIPHGPNVTVRANIAAITESDKFFINGSNWEGILGLAYAEIARPDDSLEPFFDSLVKQTHVPNLFSLQLCGAGFPLNQSEVLASVGGSMIIGGIDHSLYTGSLWYTPIRREWYYEVIIVRVEINGQDLKMDCKEYNYDKSIVDSGTTNLRLPKKVFEAAVKSIKAASSTEKFPDGFWLGEQLVCWQAGTTPWNIFPVISLYLMGEVTNQSFRITILPQQYLRPVEDVATSQDDCYKFAISQSSTGTVMGAVIMEGFYVVFDRARKRIGFAVSACHVHDEFRTAAVEGPFVTLDMEDCGYNIPQTDESTLMT
- Km: The Km of the substrate is greater than 100 µM and cannot be determined due to the limit of solubility of the substrate
